# Test results: US12459974B2, “Bicyclic peptide ligands specific for Nectin-4” (priority 2018, dated 2025)
# Where two headings read alike, the source gives them in different places. *1 amine or outer side, *2 acyl side, *3 side chain or, on linkers, in order; H or OH if unused. Where a SMILES comes first, the peptide text is derived from it. Bridges are numbered along the chain shown (N, C = ends). Roman numbers before positions name the chains, in order. [ ]: non-standard residue; d: D form. The star is where a group is joined. TATA = O=C(CC[*:1])N1CN(C(=O)CC[*:2])CN(C(=O)CC[*:3])C1; Dolaproine = CO[C@@H]([C@@H]1CCCN1)[C@@H](C)C(=O)O; Dil = CC[C@H](C)[C@H](NC)[C@@H](CC(=O)O)OC; 1Nal = N[C@@H](Cc1cccc2ccccc12)C(=O)O; X3 = O=C(CCCC(=O)[*:2])NCCC(=O)[*:1]; PABC = O=C(OCc1ccc(N[*:1])cc1)[*:2]; X4 = C[C@@H](N*)[C@@H](O)c1ccccc1; Cya = N[C@@H](CS(=O)(=O)O)C(=O)O; Hyp = O=C(O)[C@@H]1C[C@@H](O)CN1; hArg = N=C(N)NCCCC[C@H](N)C(=O)O; Cit = NC(=O)NCCC[C@H](N)C(=O)O; NMeV = CN[C@H](C(=O)O)C(C)C; βAla = NCCC(=O)O; Sar = CNCC(=O)O
# Tests used:
# human Nectin-4 [1] = biological target: T1, human Nectin-4 (Homo sapiens, UniProt Q96NY8); assay: Nectin-4 competition binding assay (fluorescence polarisation); conditions: competition with fluorescent peptide SEQ ID NO: 217; read-out: Ki
# T1 sequence (Q96NY8 32-510): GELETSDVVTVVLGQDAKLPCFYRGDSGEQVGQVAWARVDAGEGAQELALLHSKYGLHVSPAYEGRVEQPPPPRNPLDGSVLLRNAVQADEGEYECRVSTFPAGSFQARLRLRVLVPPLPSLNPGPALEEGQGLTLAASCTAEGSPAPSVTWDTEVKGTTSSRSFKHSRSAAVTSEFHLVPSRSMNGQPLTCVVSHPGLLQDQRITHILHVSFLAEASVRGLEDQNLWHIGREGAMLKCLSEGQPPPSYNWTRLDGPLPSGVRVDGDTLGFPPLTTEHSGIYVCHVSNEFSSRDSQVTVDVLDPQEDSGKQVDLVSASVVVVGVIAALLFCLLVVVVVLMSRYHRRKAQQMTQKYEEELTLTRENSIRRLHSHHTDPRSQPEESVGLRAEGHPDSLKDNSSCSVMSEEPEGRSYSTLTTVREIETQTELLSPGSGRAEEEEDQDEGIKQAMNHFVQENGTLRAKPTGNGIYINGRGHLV
# Summary of the method: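 Ki derived by cubic-equation fit of mP data, with tracer peptide concentration, its Kd and Nectin-4 level as fixed inputs. Competition set up by adding 2-fold peptide dilutions (≤5% DMSO), then Nectin-4, then fluorescent peptide; polarisation measured as for direct binding.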
# human Nectin-4 [2] = biological target: T2, human Nectin-4 (Homo sapiens, UniProt Q96NY8); assay: Nectin-4 Biacore SPR binding assay
# T2 sequence (Q96NY8 32-349): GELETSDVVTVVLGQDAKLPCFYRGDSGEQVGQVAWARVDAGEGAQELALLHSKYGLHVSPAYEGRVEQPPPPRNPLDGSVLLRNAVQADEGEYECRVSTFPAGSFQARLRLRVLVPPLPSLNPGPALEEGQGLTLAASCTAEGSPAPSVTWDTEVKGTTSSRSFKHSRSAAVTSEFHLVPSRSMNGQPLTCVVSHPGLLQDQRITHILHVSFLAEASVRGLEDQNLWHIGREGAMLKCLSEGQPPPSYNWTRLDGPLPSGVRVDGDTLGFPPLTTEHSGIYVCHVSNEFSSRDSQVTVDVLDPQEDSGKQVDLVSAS
# Experimental: Biacore experiments were performed to determine ka (M^−1 s^−1), kd (s^−1), KD (nM) values of monomeric peptides binding to human Necin-4 protein (obtained from Charles River).
# Human Nectin-4 (residues Gly32-Ser349; NCBI RefSeq: NP_112178.2) with a gp67 signal sequence and C-terminal FLAG tag was cloned into pFastbac-1 and baculovirus made using standard Bac-to-Bac™ protocols (Life Technologies). Sf21 cells at 1×10^6 ml^−1 in Excell-420 medium (Sigma) at 27° C. were infected at an MOI of 2 with a P1 virus stock and the supernatant harvested at 72 hours. […] The protein was eluted with 100 μg/ml FLAG peptide. The eluted protein was concentrated to 2 ml and loaded onto an S-200 Superdex column (GE Healthcare) in PBS at 1 ml/min. 2 ml fractions were collected and the fractions containing Nectin-4 protein were concentrated to 16 mg/ml.
# The protein was extensively desalted to remove uncoupled biotin using spin columns into PBS.
# For analysis of peptide binding, a Biacore 3000 instrument was used utilising a CM5 chip (GE Healthcare). Streptavidin was immobilized on the chip using standard amine-coupling chemistry at 25° C. with HBS-N (10 mM HEPES, 0.15 M NaCl, pH 7.4) as the running buffer. Briefly, the carboxymethyl dextran surface was activated with a 7 minute injection of a 1:1 ratio of 0.4 M 1-ethyl-3-(3-dimethylaminopropyl) carbodiimide hydrochloride (EDC)/0.1 M N-hydroxy succinimide (NHS) at a flow rate of 10 μl/min. For capture of streptavidin, the protein was diluted to 0.2 mg/ml in 10 mM sodium acetate (pH 4.5) and captured by injecting 120 μl of streptavidin onto the activated chip surface. Residual activated groups were blocked with a 7 minute injection of 1 M ethanolamine (pH 8.5) and biotinylated Nectin-4 captured to a level of 1,200-1,800 RU. Buffer was changed to PBS/0.05% Tween 20 and a dilution series of the peptides was prepared in this buffer with a final DMSO concentration of 0.5%. The top peptide concentration was 100 nM with 6 further 2-fold dilutions. The SPR analysis was run at 25° C. at a flow rate of 50 μl/min with 60 seconds association and dissociation between 400 and 1,200 seconds depending upon the individual peptide. Data were corrected for DMSO excluded volume effects. All data were double-referenced for blank injections and reference surface using standard processing procedures and data processing and kinetic fitting were performed using Scrubber software, version 2.0c (BioLogic Software). Data were fitted using simple 1:1 binding model allowing for mass transport effects where appropriate.
# HCT116 xenograft = assay: Example 9.2: in vivo efficacy in HCT116 xenograft in Balb/c nude mice; set-up: species or system Mus Musculus; conditions: 3 mg/kg biw
# MDA-MB-468 xenograft [3] = assay: Example 9.4: in vivo efficacy in MDA-MB-468 xenograft in Balb/c nude mice; conditions: 5 mg/kg
# Experimental: (§1) The major endpoint was to see if the tumor growth could be delayed or mice could be cured. Tumor volume was measured three times weekly in two dimensions using a caliper, and the volume was expressed in mm^3 using the formula: V=0.5 a×b^2 where a and b are the long and short diameters of the tumor, respectively. The tumor size was then used for calculations of T/C value. The T/C value (in percent) is an indication of antitumor effectiveness; T and C are the mean volumes of the treated and control groups, respectively, on a given day. TGI was calculated for each group using the formula: TGI (%)=[1−(Ti−T0)/(Vi−V0)]×100; Ti is the average tumor volume of a treatment group on a given day, T0 is the average tumor volume of the treatment group on the day of treatment start, Vi is the average tumor volume of the vehicle control group on the same day with Ti, and V0 is the average tumor volume of the vehicle group on the day of treatment start.
# (§2) A one-way ANOVA was performed to compare tumor volume among groups, and when a significant F-statistics (a ratio of treatment variance to the error variance) was obtained, comparisons between groups were carried out with Games-Howell test. All data were analyzed using GraphPad Prism 5.0. P<0.05 was considered to be statistically significant.
# • Species: Mus Musculus • Strain: Balb/c nude • Age: 6-8 weeks • Sex: female • Body weight: 18-22 g • Number of animals: 41 mice plus spare 3.1.2.
# The tumor cells were maintained in Leibovitz's L-15 medium supplemented with 10% heat inactivated fetal bovine serum at 37° C. in an atmosphere of 5% CO2 in air. The tumor cells were routinely subcultured twice weekly. The cells growing in an exponential growth phase were harvested and counted for tumor inoculation.
# 41 animals were randomized when the average tumor volume reached 196 mm^3.
# NCI-H292 xenograft [4] = assay: Example 1: in vivo efficacy in NCI-H292 xenograft (NSCLC model) in BALB/c nude mice; set-up: species or system Mus Musculus; conditions: 5 mg/kg; day 9; average
# Experimental: as §1, §2
# The NCI-H292 tumor cells will be maintained in medium supplemented with 10% heat inactivated fetal bovine serum at 37° C. in an atmosphere of 5% CO2 in air. The tumor cells will be routinely subcultured twice weekly. The cells growing in an exponential growth phase will be harvested and counted for tumor inoculation.
# Each mouse will be inoculated subcutaneously at the right flank with NCI-H292 tumor cells (10×10^6) in 0.2 ml of PBS for tumor development. The animals will be randomized and treatment will be started when the average tumor volume reaches approximately 158-406 mm^3.
# MDA-MB-468 xenograft [5] = assay: Example 4: in vivo efficacy in MDA-MB-468 xenograft (breast cancer model) in Balb/c nude mice; set-up: species or system Mus Musculus; conditions: 5 mg/kg
# NCI-H292 xenograft [6] = assay: Example 9.5: in vivo efficacy in NCI-H292 xenograft in Balb/c nude mice; set-up: species or system Mus Musculus; conditions: 5 mg/kg; day 9; average
# NCI-H526 xenograft = assay: Example 9.6: in vivo efficacy in NCI-H526 xenograft in Balb/c nude mice
# Experimental: as §1, §2
# • Species: Mus Musculus • Strain: Balb/c nude • Age: 6-8 weeks • Sex: female • Body weight: 18-22 g • Number of animals: 21 mice plus spare 3.1.2.
# The NCI-H526 cells were maintained in medium supplemented with 10% heat inactivated fetal bovine serum at 37° C. in an atmosphere of 5% CO2 in air. The tumor cells were routinely subcultured twice weekly. The cells growing in an exponential growth phase were harvested and counted for tumor inoculation.
# Each mouse was inoculated subcutaneously at the right flank with NCI-H526 tumor cells (5.0×10^6 in 0.2 ml of PBS for tumor development. 21 animals were randomized when the average tumor volume reached 181 mm^3. The test article administration and the animal numbers in each group were shown in the experimental design table.
# Tumor growth inhibition rate for test articles in the NCI-H526 xenograft model was calculated based on tumor volume measurements at day 14 after the start of the treatment.
# HT-1376 xenograft = assay: Example 2: in vivo efficacy in HT-1376 xenograft (bladder cancer model) in CB17-SCID mice; conditions: 3 mg/kg
# Experimental: as §1
# A one-way ANOVA was performed to compare tumor volume among groups, and when a significant F-statistics (a ratio of treatment variance to the error variance) was obtained, comparisons between groups were carried out with Games-Howell test. […] P<0.05 was considered to be statistically significant.
# • Species: Mus Musculus • Strain: CB17-SCID • Age: 6-8 weeks • Sex: female • Body weight: 18-22 g • Number of animals: 21-41 mice plus spare • Animal supplier: Shanghai LC Laboratory Animal Co., LTD.
# The HT-1376 tumor cells were maintained in vitro as a monolayer culture in EMEM medium supplemented with 10% heat inactivated fetal bovine serum at 37° C. in an atmosphere of 5% CO2 in air. The tumor cells were routinely subcultured twice weekly by trypsin-EDTA treatment.
# Each mouse was inoculated subcutaneously at the right flank with HT-1376 tumor cells (5×10^6) in 0.2 ml of PBS with matrigel (1:1) for tumor development. Animals were randomized when the average tumor volume reached 153-164 mm^3.
# Tumor growth inhibition rate for Test articles in the HT-1376 xenograft model was calculated based on tumor volume measurements at day 21 after the start of treatment.
# MDA-MB-468 cell line = assay: Example 11: HCS assay, Nectin-4 BDC binding study; format: cell-based
# Experimental: HCS assay was used in Nectin-4 BDC binding study. Cells were incubated with test agent and then washed. Detection was by a fluorescent antibody to MMAE.
compound,measurement,setting,value
"CC[C@H](C)[C@@H]1NC(=O)[C@@H]2CCCN2C(=O)[C@H](Cc2c[nH]c3ccccc23)NC(=O)[C@H](CO)NC(=O)[C@H](Cc2c[nH]c3ccccc23)NC(=O)[C@H](CC(N)=O)NC(=O)[C@H](CCCCN)NC(=O)[C@H](CCSC)NC(=O)[C@@H]2CSCCC(=O)N3CN(CN(C3)C(=O)CCSC[C@H](NC(=O)[C@H](C)N)C(=O)N3CCC[C@H]3C(=O)N[C@@H](Cc3ccccc3)C(=O)NCC(=O)N2)C(=O)CCSC[C@@H](C(=O)N[C@@H](C)C(N)=O)NC(=O)[C@H](Cc2c[nH]c3ccccc23)NC1=O [BCY428, A-(SEQ ID NO: 1)-A]",Ki,human Nectin-4 [1],61 nM
same,Kd,human Nectin-4 [2],334 nM
"CC[C@H](C)[C@@H]1NC(=O)[C@@H]2CCCN2C(=O)[C@H](Cc2c[nH]c3ccccc23)NC(=O)[C@H](CO)NC(=O)[C@H](Cc2c[nH]c3ccccc23)NC(=O)[C@H](CC(N)=O)NC(=O)[C@H](CCCCN)NC(=O)[C@H](CCSC)NC(=O)[C@@H]2CSCCC(=O)N3CN(CN(C3)C(=O)CCSC[C@H](NC(C)=O)C(=O)N3CCC[C@H]3C(=O)N[C@@H](Cc3ccccc3)C(=O)NCC(=O)N2)C(=O)CCSC[C@@H](C(N)=O)NC(=O)[C@H](Cc2c[nH]c3ccccc23)NC1=O [BCY7390, Ac-(SEQ ID NO: 1)] (Ac-CPFGCMKNWSWPIWC-NH2; linker 1-5-15 via TATA; C-terminus assumed)",Ki,human Nectin-4 [1],17.1 nM
same,Kd,human Nectin-4 [2],40.3 nM
"CC[C@H](C)[C@@H]1NC(=O)[C@@H]2CCCN2C(=O)[C@H](Cc2c[nH]c3ccccc23)NC(=O)[C@H](CO)NC(=O)[C@H](Cc2c[nH]c3ccccc23)NC(=O)[C@H](CC(N)=O)NC(=O)[C@H](CCCCN)NC(=O)[C@H](CCSC)NC(=O)[C@@H]2CSCCC(=O)N3CN(CN(C3)C(=O)CCSC[C@H](NC(C)=O)C(=O)N3CCC[C@H]3C(=O)N[C@@H](Cc3ccccc3)C(=O)NCC(=O)N2)C(=O)CCSC[C@@H](C(=O)N[C@H](C(=O)N[C@@H](CC(N)=O)C(=O)N[C@@H](CCCCN)C(N)=O)[C@@H](C)O)NC(=O)[C@H](Cc2c[nH]c3ccccc23)NC1=O [BCY7391, Ac-(SEQ ID NO: 1)-TNK] (Ac-CPFGCMKNWSWPIWCTNK-NH2; linker 1-5-15 via TATA; C-terminus assumed)",Ki,human Nectin-4 [1],13.3 nM
same,Kd,human Nectin-4 [2],59.8 nM
"CC[C@H](C)[C@@H]([C@@H](CC(=O)N1CCC[C@H]1[C@H](OC)[C@@H](C)C(=O)N[C@H](C)[C@@H](O)c1ccccc1)OC)N(C)C(=O)[C@@H](NC(=O)[C@H](C(C)C)N(C)C(=O)OCc1ccc(NC(=O)[C@H](CCCNC(N)=O)NC(=O)[C@@H](NC(=O)CCCC(=O)NCCC(=O)N(C)CC(=O)N(C)CC(=O)N(C)CC(=O)N(C)CC(=O)N(C)CC(=O)N(C)CC(=O)N(C)CC(=O)N(C)CC(=O)N(C)CC(=O)N(C)CC(=O)N[C@H]2CSCCC(=O)N3CN4CN(C3)C(=O)CCSC[C@H](NC(=O)[C@@H](CCCNC(=N)N)NC(=O)[C@H](Cc3cccc5ccccc35)NC(=O)[C@@H]3CCCN3C2=O)C(=O)N[C@@H](CC(C)C)C(=O)N[C@@H](CCCCNC(=N)N)C(=O)N[C@@H](Cc2c[nH]cn2)C(=O)N[C@@H](Cc2c[nH]c3ccccc23)C(=O)N[C@@H](CO)C(=O)N[C@@H]([C@@H](C)O)C(=O)N2CCC[C@H]2C(=O)N2C[C@H](O)C[C@H]2C(=O)N[C@@H](Cc2c[nH]c3ccccc23)C(=O)N[C@H](C(N)=O)CSCCC4=O)C(C)C)cc1)C(C)C [BCY8253, MMAE-PABC-Cit-Val-Glutaryl-BCY8231] (I: [Sar][Sar][Sar][Sar][Sar][Sar][Sar][Sar][Sar][Sar]CP[1Nal][dR]CL[hArg]HWSTP[Hyp]WC-NH2 / II: V[Cit][PABC][NMeV]V[Dil][Dolaproine]-X4; linker I:11-I:15-I:25 via TATA; linker I:N-II:N via X3)",bodyweight loss,HCT116 xenograft,15%
same,animal body weight (in words),MDA-MB-468 xenograft [3],severe animal body weight loss
same,death,MDA-MB-468 xenograft [3],found dead on day 20
same,bodyweight loss,NCI-H292 xenograft [4],> 15%
same,animal body weight (in words),MDA-MB-468 xenograft [5],severe animal body weight loss
same,death,MDA-MB-468 xenograft [5],found dead on day 20
same,bodyweight loss,NCI-H292 xenograft [6],> 15%
"CC[C@H](C)[C@@H]([C@@H](CC(=O)N1CCC[C@H]1[C@H](OC)[C@@H](C)C(=O)N[C@H](C)[C@@H](O)c1ccccc1)OC)N(C)C(=O)[C@@H](NC(=O)[C@H](C(C)C)N(C)C(=O)OCc1ccc(NC(=O)[C@H](CCCNC(N)=O)NC(=O)[C@@H](NC(=O)CCCC(=O)NCCC(=O)N(C)CC(=O)N(C)CC(=O)N(C)CC(=O)N(C)CC(=O)N(C)CC(=O)N(C)CC(=O)N(C)CC(=O)N(C)CC(=O)N(C)CC(=O)N(C)CC(=O)N[C@H]2CSCCC(=O)N3CN4CN(C3)C(=O)CCSC[C@H](NC(=O)[C@@H](CCCNC(=N)N)NC(=O)[C@H](Cc3cccc5ccccc35)NC(=O)[C@@H]3CCCN3C2=O)C(=O)N[C@@H](CCSC)C(=O)N[C@@H](CCCCNC(=N)N)C(=O)N[C@@H](CC(=O)O)C(=O)N[C@@H](Cc2c[nH]c3ccccc23)C(=O)N[C@@H](CO)C(=O)N[C@@H]([C@@H](C)O)C(=O)N2CCC[C@H]2C(=O)N2C[C@H](O)C[C@H]2C(=O)N[C@@H](Cc2c[nH]c3ccccc23)C(=O)N[C@H](C(N)=O)CSCCC4=O)C(C)C)cc1)C(C)C [BCY8255, MMAE-PABC-Cit-Val-Glutaryl-BCY8235] (I: [Sar][Sar][Sar][Sar][Sar][Sar][Sar][Sar][Sar][Sar]CP[1Nal][dR]CM[hArg]DWSTP[Hyp]WC-NH2 / II: V[Cit][PABC][NMeV]V[Dil][Dolaproine]-X4; linker I:11-I:15-I:25 via TATA; linker I:N-II:N via X3)",animal bodyweight loss,NCI-H526 xenograft; 3 mg/kg biw,over 15%
same,animal bodyweight loss,NCI-H526 xenograft; 5 mg/kg qw,over 15%
same,bodyweight loss,HCT116 xenograft,15%
same,animal body weight (in words),MDA-MB-468 xenograft [3],severe animal body weight loss
same,death,HT-1376 xenograft,found dead on day 16
same,animal body weight (in words),MDA-MB-468 xenograft [5],severe animal body weight loss
"CSCC[C@@H]1NC(=O)[C@@H]2CSCCC(=O)N3CN(CN(C3)C(=O)CCSC[C@H](NC(=O)CN(C)C(=O)CN(C)C(=O)CN(C)C(=O)CN(C)C(=O)CN(C)C(=O)CN(C)C(=O)CN(C)C(=O)CN(C)C(=O)CN(C)C(=O)CN(C)C(=O)CCNC(C)=O)C(=O)N3CCC[C@H]3C(=O)N[C@@H](Cc3cccc4ccccc34)C(=O)N[C@H](CC(=O)O)C(=O)N2)C(=O)CCSC[C@@H](C(N)=O)NC(=O)[C@H](Cc2c[nH]c3ccccc23)NC(=O)[C@@H]2C[C@@H](O)CN2C(=O)[C@@H]2CCCN2C(=O)[C@H]([C@@H](C)O)NC(=O)[C@H](CO)NC(=O)[C@H](Cc2c[nH]c3ccccc23)NC(=O)[C@H](CC(=O)O)NC(=O)[C@H](CS(=O)(=O)O)NC1=O [BCY8277, Ac-[B-Ala][Sar10]-(SEQ ID NO: 178)] (Ac-[βAla][Sar][Sar][Sar][Sar][Sar][Sar][Sar][Sar][Sar][Sar]CP[1Nal][dD]CM[Cya]DWSTP[Hyp]WC-NH2; linker 12-16-26 via TATA; C-terminus assumed)",Kd,human Nectin-4 [2],5.99 nM
"CC[C@H](C)[C@@H]([C@@H](CC(=O)N1CCC[C@H]1[C@H](OC)[C@@H](C)C(=O)N[C@H](C)[C@@H](O)c1ccccc1)OC)N(C)C(=O)[C@@H](NC(=O)[C@@H](NC)C(C)C)C(C)C [MMAE, Monomethyl auristatin E, reference compound] (H-[NMeV]V[Dil][Dolaproine]-X4)",binding affinity on MDA-MB-468 cell line (in words),MDA-MB-468 cell line,almost no detectable binding affinity
same,Max fluorescent intensity,"MDA-MB-468 cell line; MDA-MB-468 cell line, fluorescent antibody to MMAE",2.95
same,Kd,"MDA-MB-468 cell line; MDA-MB-468 cell line, historical data, read-out: Historical Kd",> 10000 nM
same,Kd,"MDA-MB-468 cell line; MDA-MB-468 cell line, read-out: Kd",> 10000 nM
same,retention on the cells (in words),MDA-MB-468 cell line; detection by a fluorescent antibody to MMAE,minimal retention
